Assay results reported in US20210155689A1 (SHANGHAI PHARMAEXPLORER, published 2021).

T1: human LAG-3 protein with hFc tag (hLAG-3-hFc protein) (human, UniProt P18627 23-450)
T1 construct: also called immunogen 1; LAG-3 extracellular domain protein; not shown: human IgG Fc fragment (hFc) of the pCpC vector
T1 sequence: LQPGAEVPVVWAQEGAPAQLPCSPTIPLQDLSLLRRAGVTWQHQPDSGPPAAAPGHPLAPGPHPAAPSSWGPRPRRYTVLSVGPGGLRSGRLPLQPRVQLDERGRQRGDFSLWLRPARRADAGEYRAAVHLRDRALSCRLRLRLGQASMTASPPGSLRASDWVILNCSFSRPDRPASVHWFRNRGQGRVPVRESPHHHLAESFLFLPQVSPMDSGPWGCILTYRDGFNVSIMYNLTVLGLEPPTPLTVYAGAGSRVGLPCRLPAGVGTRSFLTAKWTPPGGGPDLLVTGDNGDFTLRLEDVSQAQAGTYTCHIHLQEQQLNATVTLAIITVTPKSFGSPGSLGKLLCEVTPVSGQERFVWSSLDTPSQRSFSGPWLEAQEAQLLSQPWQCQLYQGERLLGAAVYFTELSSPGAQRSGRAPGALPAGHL

T2: human LAG-3 (full length, on the cell surface) (human, UniProt P18627 23-525)
T2 construct: Full-length human LAG-3 expressed on cells; also called HEK293-hLAG-3; HEK293 cells transfected with LAG-3 gene
T2 sequence: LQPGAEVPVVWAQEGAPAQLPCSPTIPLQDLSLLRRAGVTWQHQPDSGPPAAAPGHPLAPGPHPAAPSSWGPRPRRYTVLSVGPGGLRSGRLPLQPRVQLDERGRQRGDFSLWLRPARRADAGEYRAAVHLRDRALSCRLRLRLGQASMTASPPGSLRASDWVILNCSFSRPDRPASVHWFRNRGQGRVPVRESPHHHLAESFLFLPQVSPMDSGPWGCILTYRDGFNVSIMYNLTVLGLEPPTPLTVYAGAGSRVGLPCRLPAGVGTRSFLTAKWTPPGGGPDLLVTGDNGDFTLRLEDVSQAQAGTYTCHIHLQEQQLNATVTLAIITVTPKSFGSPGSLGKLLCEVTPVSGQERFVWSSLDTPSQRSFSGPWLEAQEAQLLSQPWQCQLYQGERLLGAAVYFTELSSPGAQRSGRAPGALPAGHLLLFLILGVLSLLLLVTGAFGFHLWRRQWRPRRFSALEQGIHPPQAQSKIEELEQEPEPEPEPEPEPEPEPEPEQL

T3: hFc tagged monkey LAG-3 protein (cLAG-3-hFc protein) (monkey; human)
T3 construct: Made in HEK293 cells; also called monkey LAG-3 extracellular domain protein; not shown: human IgG Fc fragment (hFc) of the pCpC vector
T3 chain: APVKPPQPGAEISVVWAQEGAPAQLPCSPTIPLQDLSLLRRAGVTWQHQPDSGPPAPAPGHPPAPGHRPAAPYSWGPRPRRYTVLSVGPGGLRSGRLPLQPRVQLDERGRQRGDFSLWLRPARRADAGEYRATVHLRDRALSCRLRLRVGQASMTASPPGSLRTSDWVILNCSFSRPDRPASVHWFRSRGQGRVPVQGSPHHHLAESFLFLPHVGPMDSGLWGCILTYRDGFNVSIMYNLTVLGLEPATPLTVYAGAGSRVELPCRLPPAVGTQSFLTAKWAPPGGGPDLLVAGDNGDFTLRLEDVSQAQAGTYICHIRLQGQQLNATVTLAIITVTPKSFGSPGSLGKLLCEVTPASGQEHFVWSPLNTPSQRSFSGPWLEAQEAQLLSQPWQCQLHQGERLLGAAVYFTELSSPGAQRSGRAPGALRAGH


How the values were obtained:
[1] = biological target: T1, human LAG-3 protein with hFc tag …; assay: FACS, blocks LAG-3-hFc binding to MHC II on Raji; 66.667 nM
Description: The FACS reaction plate incubating the Raji cells was centrifuged to discard the supernatant. The above mixture was added as 100 μl per well to Raji cells and incubated on ice for 1-2 hours. The plate was washed twice with blocking solution (PBS, 2% fetal bovine serum) by centrifugation, added with 100 microliters of fluorescent (Alexa 488)-labeled secondary antibodies per well, and incubated on ice for 1.0 hours. The plate was washed 2-3 times by centrifugation with blocking solution (PBS, 2% fetal bovine serum), added with 100 microliters of PBS per well to suspend cells, and detected using FACS (FACS Calibur, BD) and the results were analyzed. Wherein, the IgG control was murine IgG, and the data in the table is the inhibition rate (%).

[2] = biological target: T2, human LAG-3 (full length, on the cell …); assay: FACS, HEK293-hLAG-3; 8.000 nM
Description: The pIRES plasmid with the monkey-derived full-length gene was transfected into the HEK293 cell line to construct a HEK293 stable cell line containing monkey LAG-3 (herein referred to as HEK293-cLAG-3 stable cell line). The HEK293-hLAG-3 stable cell line and HEK293-cLAG-3 stable cell line were expanded in a T-75 cell culture flask to a 90% confluence. The medium was aspirated, and the cells were washed with HBSS (Hanks' Balanced Salt Solution) 1-2 times, then treated with a enzyme-free cell dissociation fluid (Versene solution: Life technology) and the cells were collected. The cells were washed with HBSS buffer for 1-2 times. After counted, the cells were diluted with HBSS to 1-2×10⁶ cells per ml, added with 1% goat serum blocking solution, incubated on ice for 20-30 minutes, and then washed with HBSS for 2 times by centrifugation. The collected cells were suspended in the FACS buffer (HBSS+1% BSA) to 2×10⁶ cells/ml, added as 100 microliters per well to a 96-well FACS reaction plate, added with 100 microliters per well of the antibody sample to be tested, incubated on ice for 1-2 hours. The plate was washed twice with the FACS buffer by centrifugation, added with 100 microliters of fluorescent (Alexa 488)-labeled secondary antibodies per well, and incubated on ice for 0.5-1.0 hours. The plate was washed 2-3 times with FACS buffer by centrifugation, added with 100 μl fixative solution (4% Paraformaldehyde) per well to suspend the cells. 5-10 minutes later, it was washed 1-2 times with FACS buffer by centrifugation. The cells were suspended with 100 microliters of FACS buffer, FACS (FACSCalibur, BD) was used for detection and the results were analyzed.

[3] = biological target: T3, hFc tagged monkey LAG-3 protein …; assay: ELISA, cLAG-3-hFc coated; 0.0000 nM
Description: The plate was sealed with plastic film and incubated overnight at 4° C. The plate was washed 2 times with the plate washing solution (PBS+0.01% Tween20) on the next day, and added with the blocking solution (PBS+0.01% Tween20+1% BSA) and blocked at room temperature for 1-2 hours. The blocking solution was poured out, and the plate was added with 50-100 μl of the antibody sample to be tested to each well, incubated at 37° C. for 1-2 hours, and washed 2-3 times with a plate washing solution (PBS+0.01% Tween20). HRP (horseradish peroxidase) labeled secondary antibody was added, and the plate was incubated at 37° C. for 1-2 hours, and washed 2-3 times with a plate washing solution (PBS+0.01% Tween20). 100 μl of TMB substrate was added to each well. After incubated at room temperature for 15-30 minutes, the plate was added with 100 μl of stop solution (1.0N HCl) to each well.

Row | Binder | Inhibition rate (%) [1] [%] | Mean fluorescence intensity [2] [MFI] | OD450 [3] [OD450]
1 | 405B8H3 (mouse antibody purified from hybridoma) (antibody, V domains shown, also called mAb103-405B8H3; 405B81-13) VH: QVQLQQSGAELVRPGASVTLSCKASGYTFTDYEMHWVKQTPVHGLEWIGATDPETGNSAYNQKFKGKAIMTADKSSSTAYMELRSLTSEDSAVYYCISTGWNDWGQGTSLTVSS VL: DIKMTQSPSSMYASLGERVTITCKASQDINSYLSWFQQKPGKSPKTLIYRADRLLDGVPSRFSGSGSGQDYSLTISSLEYGDMGIYYCLQYDEFPYTFGGGTKLEIK | 94 | 252 | 
2 | 105F1E10 (LAG-3 mouse-human chimeric antibody) (antibody, V domains shown) VH: EVQLQQSGPELVKPGASVKMSCRASGYTFTDFKMHWMKQSHGKSLEWIGYIAPNNGGTAYNQKFRGKATLTVNESSNTAYMELRSLTSEDSAVYYCVDWDDVDYWGQGTTLTVSS VL: DIKMTQSPSSMYASLGERVTITCKASQDINSYLSWFQQKSGKSPKTLIYRANRLVDGVPSRFSGSGSGQDYSLTISSLEYEDMGIYYCLQYVEFPLTFGAGTKLELK |  |  | 0.15
3 | 405B8H3 (LAG-3 mouse-human chimeric antibody) (antibody, V domains shown, also called mouse-human chimeric antibody 405B8H3) VH: QVQLQQSGAELVRPGASVTLSCKASGYTFTDYEMHWVKQTPVHGLEWIGATDPETGNSAYNQKFKGKAIMTADKSSSTAYMELRSLTSEDSAVYYCISTGWNDWGQGTSLTVSS VL: DIKMTQSPSSMYASLGERVTITCKASQDINSYLSWFQQKPGKSPKTLIYRADRLLDGVPSRFSGSGSGQDYSLTISSLEYGDMGIYYCLQYDEFPYTFGGGTKLEIK |  |  | 0.15
4 | 105F1E10 (mouse antibody purified from hybridoma) (antibody, V domains shown, also called mAb009-105F1E10) VH: EVQLQQSGPELVKPGASVKMSCRASGYTFTDFKMHWMKQSHGKSLEWIGYIAPNNGGTAYNQKFRGKATLTVNESSNTAYMELRSLTSEDSAVYYCVDWDDVDYWGQGTTLTVSS VL: DIKMTQSPSSMYASLGERVTITCKASQDINSYLSWFQQKSGKSPKTLIYRANRLVDGVPSRFSGSGSGQDYSLTISSLEYEDMGIYYCLQYVEFPLTFGAGTKLELK | 93.6 | 235 | 
5 | 409D4E10 (mouse antibody purified from hybridoma) (antibody, V domains shown, also called mAb112-409D4E10) VH: QVQLQQSGAELVRPGASVTLSCKASGNTFTDYEMHWVKQTPVHGLEWIGATDPETDNTAYNQKFKGKAILTTDKSSSTAYMELRSLTSEDSAVYYCITSGWNDWGQGTSLTVSS VL: DIKMTQSPSSMYASLGERVTITCKASQDINSYLSWFQQKPGKSPKTLIYRANRLLDGVPSRFSGSGSGQDYSLTISSLEYEDMGIYYCLQYNEFPYTFGGGTKLEIK | 96 | 123 | 
6 | 409B11E12 (mouse antibody purified from hybridoma) (antibody, V domains shown, also called mAb104-409B11E12) VH: QVQLQQSGAELVRPGASVTLSCKASGYTFTDYEMHWVKQTTVHGLEWIGATDPETSYSAYNQKFKGKAILTADKSSSTAYMELRSLTSEDSAVYYCIATGWNDWGQGTSLTVSS VL: DLKMTQSPSSMYASLGERVTITCKASQDINSYLSWFQQKPGKSPKTLIYRANRLLDGVPSRFSGSGSGQDYSLTISSLEYEDMGIYYCLQYDEFPYTFGGGTKLEIK | 95.5 | 112 | 
7 | 409D4E10 (LAG-3 mouse-human chimeric antibody) (antibody, V domains shown) VH: QVQLQQSGAELVRPGASVTLSCKASGNTFTDYEMHWVKQTPVHGLEWIGATDPETDNTAYNQKFKGKAILTTDKSSSTAYMELRSLTSEDSAVYYCITSGWNDWGQGTSLTVSS VL: DIKMTQSPSSMYASLGERVTITCKASQDINSYLSWFQQKPGKSPKTLIYRANRLLDGVPSRFSGSGSGQDYSLTISSLEYEDMGIYYCLQYNEFPYTFGGGTKLEIK |  |  | 0.18
8 | 409B11E12 (LAG-3 mouse-human chimeric antibody) (antibody, V domains shown) VH: QVQLQQSGAELVRPGASVTLSCKASGYTFTDYEMHWVKQTTVHGLEWIGATDPETSYSAYNQKFKGKAILTADKSSSTAYMELRSLTSEDSAVYYCIATGWNDWGQGTSLTVSS VL: DLKMTQSPSSMYASLGERVTITCKASQDINSYLSWFQQKPGKSPKTLIYRANRLLDGVPSRFSGSGSGQDYSLTISSLEYEDMGIYYCLQYDEFPYTFGGGTKLEIK |  |  | 0.14
9 | 556F6B8 (mouse antibody purified from hybridoma) (antibody, V domains shown, also called mAb123-556F6B8) VH: RVQLKQSGPGLVQPSQSLSITCTVSGFSLIKYGVHWVRQSPGEGLEWLGVIWRGGITDYNAAFMSRLSITKDNSKSQVFFKMNSLQADDTAIYYCAKWDGPLAMDYWGQGTSVTVSS VL: DIVMTQSHKFLSTSVGDRVSITCKASQDVGTTVAWYQQKPGQSPKLLIYWASTRHTGVPDRFTGSGSGTDFTLTISNVQSEDLADYFCQQYSSYPYTFGGGTKLEIK | 95.9 | 74.9 | 
10 | 556F6B8 (LAG-3 mouse-human chimeric antibody) (antibody, V domains shown, also called 556F8B8) VH: RVQLKQSGPGLVQPSQSLSITCTVSGFSLIKYGVHWVRQSPGEGLEWLGVIWRGGITDYNAAFMSRLSITKDNSKSQVFFKMNSLQADDTAIYYCAKWDGPLAMDYWGQGTSVTVSS VL: DIVMTQSHKFLSTSVGDRVSITCKASQDVGTTVAWYQQKPGQSPKLLIYWASTRHTGVPDRFTGSGSGTDFTLTISNVQSEDLADYFCQQYSSYPYTFGGGTKLEIK |  |  | 0.19
